This note sets out measurements from the supplement of paper PMC9170038.

In the series the test system is K4 kissing-loop RNA reporter. Put plainly: apparent KD of K4 kissing-loop reporter; higher = weaker reporter binding. Conditions: Eterna round: R107. Here is the method: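 RNA-MaP round R107: designed RNA switches with theophylline, tryptophan, arginine or FMN aptamers are transcribed on-chip within common flanks. They are titrated with a labelled K4 kissing-loop RNA reporter in RNA-MaP buffer (100 mM Tris pH 7.5, 80 mM KCl, 4 mM MgCl2), without ligand or with the indicated ligand. Median apparent KD per design.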

Where [1] appears, read: input ligand: theophylline 20 uM.
Where [2] appears, read: input ligand: tryptophan 2.4 mM.
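Further: bound reporter read as fluorescence of individual clusters on recovered sequencing chips by microscopy, with normalized cluster intensities fitted with a binding model.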

In the case of “UCCUUAUCGCGGUCAUAAAGCCUAUAAAACAAGGAUAUCUCAUCAGAGAGAAGGUGUGAGUGAUGUUCAAAGGCCACCACGGGUU [theeternabot_sameState_KL_FMN_A_47]”, the “apparent KD of K4 kissing-loop reporter” value came to 654 nM (input ligand: FMN 200 uM); 724 nM (input ligand: arginine 13.2 mM); 840 nM (input ligand: none); 453 nM under setting [1]; 818 nM under setting [2].
For “UCGAAGGAUGGAAGGAGCGCUCGUCAGCCCUGCGAGUGAUGUUCGUGGGUAAAUAGUCGCGAGCAGGUAGGUCGCCAUCUUGAGC [Ritera]”, in that order: 128 nM, 111 nM, 130 nM, 111 nM and 116 nM.
As for “UCGACAGUGAACGAUACCAGCGUCACGUGGCUGGUGGUCACAUGAGUGAUGUUCAUGUAACGCCCUUGGCAGCGUGCACGUAUCA [KL-XTheo-B8]”, the “apparent KD of K4 kissing-loop reporter” value was 141 nM (input ligand: FMN 200 uM); 127 nM (input ligand: arginine 13.2 mM); 133 nM (input ligand: none); 125 nM under setting [1]; 129 nM under setting [2].
The like results for “UCGAUGGCCAGCGAUACCAGCCCAGUGAUGUUGGGCACAUGGUUGCGGGAAAUCCCAUUGGGCCCUUGGCAGCGCUUGCAUGGGU [Dizaisa]” were, in that order, 148 nM, 121 nM, 140 nM, 120 nM and 125 nM.
Take “UCGCCAAAGUCGGCCGCCACUCCGGGCCCUAUAAAUGGGCGCAGUGAUGUUGCGGCUAGGCCUCUGAGGACCGGGACUUUGUAGA [Esenusza]”: the “apparent KD of K4 kissing-loop reporter” value was found to be 116 nM (input ligand: FMN 200 uM); 0.509 nM (input ligand: arginine 13.2 mM); 152 nM (input ligand: none); 233 nM under setting [1]; 152 nM under setting [2].
Take “UCGGCAAAGUCGGCCGCCACUCCGGGCCCUAUAAAUGGGCGCAGUGAUGUUGCGGCUAGGCCUCUGAGGACCGGGACUUUGUAGA [Gebive]”: the “apparent KD of K4 kissing-loop reporter” value worked out at 114 nM (input ligand: FMN 200 uM); 91.7 nM (input ligand: arginine 13.2 mM); 112 nM (input ligand: none); 146 nM under setting [1]; 204 nM under setting [2].
For “UCGGCAGUGAACGAUACCAGCGUCACGUGGCUGGUGGUCACAUGAGUGAUGUUCAUGUAACGCCCUUGGCAGCGUGCGCGUACCG [KL-XTheo-B11]”, in that order: 113 nM, 98.1 nM, 107 nM, 94.7 nM and 103 nM.
For “UCGGGCGGCUGAAGGAGCGGGCGGGCCCGAGUGAUGUUCGGGUGGGCCGUGAGGCCCGGAGCCCAGGUAGGUCGCGGUUCCGCCC [#2 Same State - Arginine B Attempt #23 (HarryS)]”, in that order: 200 nM, 153 nM, 188 nM, 168 nM and 175 nM.
The like results for “UCGUCUGUGUGAGGAUAUCCAAGCGAGCUGCGUAAAGGCGCGGCGUUUGGAGUGAUGUUCCAGGCAGGAGAAGGCGCACGGGCUU [Maleisar]” were, in that order, 231 nM, 296 nM, 245 nM, 470 nM and 292 nM.
For “UCUCUUCUCAGUGAUGUUGAGUAAUCGGAAGGAGCGCGUGAAAACGCAGGUAGGUCGCCGAUUUGUGAAGUAUCUUCGCAAGAGA [Arginine A K4 26]”, the “apparent KD of K4 kissing-loop reporter” value runs as follows: (input ligand: FMN 200 uM) 352 nM; (input ligand: arginine 13.2 mM) 341 nM; (input ligand: none) 412 nM; under setting [1], 441 nM; under setting [2], 300 nM.
For “UCUGAAGGUGGAGGAUAUUGAUUGAAUCUUGGUCAGGAGUGAUGUUCCGGGAAGCCUUGGAUUCAUCGAGAAGGCCAAGGAUAGU [#10 K4 FMN B Same State]”, in that order: 144 nM, 259 nM, 243 nM, 306 nM and 225 nM.
For “UCUGCAAAGUCGGCCGCCACUCCGGGCCCUAUAAAUGGGCGCAGUGAUGUUGCGGCUAGGCCUCUGAGGACCGGGACUUCGUAGA [Somale]”, in that order: 62.8 nM, 52.1 nM, 54.7 nM, 166 nM and 107 nM.
The like results for “UCUGGAGCGUAUGAUACCAGCAGAGAGAGACAGGAAGUAUAGUGAUGUUAUAUGAGAGAAUGCCCUUGGCAGCGUGUGCAGUGGC [#26 K4 Theophylline B Same State]” were, in that order, 55.9 nM, 56.5 nM, 66.8 nM, 53.4 nM and 48 nM.
On to “UCUGGUAUAUCUGAUACCAGAGUAUAGUAUCAAUUGCAUAUCCGCAGUGAUGUUGCGGAACUCCCUUGGCAGCAGAUCUAUCUCU [Same State Theophylline B GF 26]”, for which the “apparent KD of K4 kissing-loop reporter” value is, setting by setting: (input ligand: FMN 200 uM) 71.6 nM; (input ligand: arginine 13.2 mM) 90.6 nM; (input ligand: none) 81.8 nM; under setting [1], 86.8 nM; under setting [2], 70 nM.
For “UCUUAACUAAAAUAAUGGGAUACCAGUGAUACCAGCCAUAUGCAGGGCCCUUGGCAGCACCCUUGGCAGCCUCGAGUGAUGUUCG [KL-SSTheo-A7 #DoubleAptamer]”, in that order: 283 nM, 292 nM, 315 nM, 247 nM and 230 nM.
On to “UGAACUUUUGCUAGGAACCGUCUAGCUCUUUAGGAUAUCUGGAAACAGAGAAGGAAAGACCUACAGAGUGAUGUUCUGCGUUCAU”, for which the “apparent KD of K4 kissing-loop reporter” value runs as follows: (input ligand: FMN 200 uM) 383 nM; (input ligand: arginine 13.2 mM) 268 nM; (input ligand: none) 316 nM; under setting [1], 316 nM; under setting [2], 263 nM.
“UGACAUUGCUCAGAUACCAGACAAGAGGAUCACCCUUGUGCCAAAACGUACUAAAUAAAUGUCCCUUGGCAGCUGAGCAAUGUCU [TheoBX 13]”: the “apparent KD of K4 kissing-loop reporter” value is 82.5 nM (input ligand: FMN 200 uM); 42.1 nM (input ligand: arginine 13.2 mM); 45.9 nM (input ligand: none); 77.4 nM under setting [1]; 58.6 nM under setting [2].
As to “UGACAUUGCUCAGAUACCAGACUUGAGGAACACCCAAGUGCCAAAUACGUACAAAUAAAAGUCCCUUGGCAGCUGAGCAAUGUCU [TheoBX 12]”, the “apparent KD of K4 kissing-loop reporter” value by setting is: (input ligand: FMN 200 uM) 58.3 nM; (input ligand: arginine 13.2 mM) 23.5 nM; (input ligand: none) 48.5 nM; under setting [1], 148 nM; under setting [2], 38.5 nM.
